One molecule from patent publication US20130011406A1 (KOLLTAN PHARMACEUTICALS, published 2013) can be followed below.

For the test, the target named is T1, full-length, wild-type human KIT (human, UniProt P10721 26-976).
T1 construct: expressed in CHO or NIH3T3 cells; also called CHO/KIT WT; CHO/KIT
As to the kind of experiment: immunofluorescence staining with Ab1-Alexa488 on CHO/KIT and NIH3T3/KIT cells, confocal microscopy. How it is done: Immunofluorescence staining assays were carried to determine if antibody Ab1 was internalized by cells. The immunofluorescence staining assays were carried out essentially as described below. Materials and reagents for the immunofluorescence assays include the following: [0745] Tissue culture slides: Poly-D-Lysine coated four or eight well chamber slide [0746] Antibody: Antibody Ab1 conjugated with the fluorescent dye Alexa-488 (Invitrogen) [0747] Fixative: 4% paraformaldehyde; store 40% PFA microscopy grade in fridge and dilute 1:10 with PBS just before use [0748] Mounting media: Prolong Gold antifade+DAPI [0749] CHO cells engineered to express exogenous human, wild-type KIT (full-length) (“CHO/KIT”) [0750] NIH3T3 cells engineered to express exogenous human, wild-type KIT (full-length) [0751] (“NIH3T3/KIT”)
15,000 to 30,000 CHO/KIT cells or NIH3T3/KIT cells were seeded into each well of the tissue culture slide. The cells were cultivated for at least 24 hrs before starvation in media containing no fetal bovin serum overnight. Ab1-Alexa488 was diluted in starvation media containing 1% bovine serum albumin and pipetted onto the cell layer. 5 to 60 min later, cell layers were washed once with PBS (room temperature). Cell layers were fixed for 18 min with fixative at room temperature, and were washed 3 times with PBS. […] Internalization of the antibody was analyzed by confocal microscopy.

T1 sequence (P10721 other isoform, or with tags, fused parts or gaps limits assumed): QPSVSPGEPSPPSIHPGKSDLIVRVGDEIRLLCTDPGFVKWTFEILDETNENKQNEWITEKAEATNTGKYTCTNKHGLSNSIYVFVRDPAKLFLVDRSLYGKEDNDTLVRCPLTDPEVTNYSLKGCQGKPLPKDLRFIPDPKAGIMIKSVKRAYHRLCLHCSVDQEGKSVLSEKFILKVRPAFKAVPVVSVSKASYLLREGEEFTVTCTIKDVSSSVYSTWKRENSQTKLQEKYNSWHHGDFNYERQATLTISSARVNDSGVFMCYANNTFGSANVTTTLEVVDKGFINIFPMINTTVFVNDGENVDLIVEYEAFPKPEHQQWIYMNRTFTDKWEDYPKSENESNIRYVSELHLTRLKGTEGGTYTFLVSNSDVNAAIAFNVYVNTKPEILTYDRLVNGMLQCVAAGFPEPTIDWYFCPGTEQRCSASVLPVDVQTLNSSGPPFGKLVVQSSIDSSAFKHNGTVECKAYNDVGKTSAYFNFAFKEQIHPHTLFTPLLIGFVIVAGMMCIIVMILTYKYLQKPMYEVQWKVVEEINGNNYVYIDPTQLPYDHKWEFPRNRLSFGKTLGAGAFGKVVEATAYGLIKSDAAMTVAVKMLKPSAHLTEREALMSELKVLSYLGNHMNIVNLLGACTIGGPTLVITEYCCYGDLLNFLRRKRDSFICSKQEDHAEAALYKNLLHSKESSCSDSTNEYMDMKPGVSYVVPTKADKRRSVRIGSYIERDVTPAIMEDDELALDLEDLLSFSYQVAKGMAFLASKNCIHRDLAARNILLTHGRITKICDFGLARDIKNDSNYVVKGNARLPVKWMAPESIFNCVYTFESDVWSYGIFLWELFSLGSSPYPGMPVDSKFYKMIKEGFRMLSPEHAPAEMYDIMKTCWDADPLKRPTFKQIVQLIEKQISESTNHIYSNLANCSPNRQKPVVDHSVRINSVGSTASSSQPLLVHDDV

B1: Antibody Ab1 conjugated with the fluorescent dye Alexa-488 (antibody, V domains shown)
VH: EVQLLESGGGLVQPGGSLRLSCAASGFTFSNYLMSWVRQAPGKGLEWVSSIVPSGGFTHYADSVKGRFTISRDNSKNTLYLQMNSLRAEDTAVYYCARLQTGSWRVHAFDIWGQGTMVTVSS
VL: DIQMTQSPTSLSAFVGDRVTITCQASQDIGNYLNWYQQKSGEPPKLLVYDASFLKKGVPSRFSGSGSGTQYFLTIYSLQPEDFATYFCQHSDNLSVTFGGGTKVEVK
modifications: conjugated with the fluorescent dye Alexa-488 (chain and site not stated)
notes: also called Ab1-Alexa488
As to B1, the binding result is “binds”.
